Test results from patent publication US20200392203A1 (YEDA RESEARCH AND DEVELOPMENT, published 2020).

What was measured:
[1] = biological target: native spike complex (glycoprotein complex, GPC) of Junin virus (JUNV) (Junin virus (JUNV))
[2] = biological target: native spike complex (glycoprotein complex, GPC) of Sabia virus (SABV) (Sabia virus (SABV))
[3] = biological target: GP1WWAV-Fc (GP1 domain of Whitewater Arroyo virus fused at its C' terminus to an antibody Fc portion) (Whitewater Arroyo virus (WWAV)) (UniProt Q911P0); test: SPR (Biacore T200), single cycle kinetics; […]; 1:1 model
[4] = biological target: GP1GTOV-Fc (GP1 domain of Guanarito virus fused at its C' terminus to an antibody Fc portion) (Guanarito virus (GTOV)) (UniProt Q8AYW1); test: SPR (Biacore T200), single-cycle kinetics; […]; 1:1 model fit
Chain of GP1GTOV-Fc (GP1 domain of Guanarito virus fused at its C' terminus to an antibody Fc portion) (Guanarito virus (GTOV)) (Q8AYW1 87-240): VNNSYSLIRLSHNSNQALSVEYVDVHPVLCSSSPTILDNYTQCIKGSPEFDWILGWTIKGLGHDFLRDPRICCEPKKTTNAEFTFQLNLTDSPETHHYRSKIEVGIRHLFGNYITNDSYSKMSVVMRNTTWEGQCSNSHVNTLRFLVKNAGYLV

Chain of native spike complex (glycoprotein complex, GPC) of Sabia virus (SABV) (Sabia virus (SABV)) (Q90037 2-58, chain 1 of 3): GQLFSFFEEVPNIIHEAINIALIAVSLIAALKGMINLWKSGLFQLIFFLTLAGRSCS
Chain of native spike complex (glycoprotein complex, GPC) of Sabia virus (SABV) (Sabia virus (SABV)) (Q90037 59-254, chain 2 of 3): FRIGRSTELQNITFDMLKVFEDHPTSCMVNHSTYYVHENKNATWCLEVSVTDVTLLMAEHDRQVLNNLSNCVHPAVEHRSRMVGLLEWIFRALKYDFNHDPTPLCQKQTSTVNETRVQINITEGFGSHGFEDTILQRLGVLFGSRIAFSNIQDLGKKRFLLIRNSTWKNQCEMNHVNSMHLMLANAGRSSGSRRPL
Chain of native spike complex (glycoprotein complex, GPC) of Sabia virus (SABV) (Sabia virus (SABV)) (Q90037 255-488, chain 3 of 3): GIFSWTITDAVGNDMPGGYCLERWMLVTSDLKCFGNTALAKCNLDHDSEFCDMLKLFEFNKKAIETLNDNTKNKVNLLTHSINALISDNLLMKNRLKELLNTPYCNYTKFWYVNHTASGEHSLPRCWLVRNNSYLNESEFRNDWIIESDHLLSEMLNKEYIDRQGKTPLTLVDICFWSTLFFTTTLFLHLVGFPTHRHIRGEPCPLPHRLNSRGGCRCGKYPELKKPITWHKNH
Chain of GP1WWAV-Fc (GP1 domain of Whitewater Arroyo virus fused at its C' terminus to an antibody Fc portion) (Whitewater Arroyo virus (WWAV)) (Q911P0 87-241): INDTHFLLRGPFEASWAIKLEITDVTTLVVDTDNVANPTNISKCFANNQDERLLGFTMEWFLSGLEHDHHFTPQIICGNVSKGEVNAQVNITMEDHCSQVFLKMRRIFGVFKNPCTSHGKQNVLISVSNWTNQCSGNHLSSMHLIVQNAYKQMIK
Chain of native spike complex (glycoprotein complex, GPC) of Junin virus (JUNV) (Junin virus (JUNV)) (P26313 2-58 limits assumed, chain 1 of 3): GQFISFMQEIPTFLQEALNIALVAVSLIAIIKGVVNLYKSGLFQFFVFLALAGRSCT
Chain of native spike complex (glycoprotein complex, GPC) of Junin virus (JUNV) (Junin virus (JUNV)) (P26313 59-251 limits assumed, chain 2 of 3): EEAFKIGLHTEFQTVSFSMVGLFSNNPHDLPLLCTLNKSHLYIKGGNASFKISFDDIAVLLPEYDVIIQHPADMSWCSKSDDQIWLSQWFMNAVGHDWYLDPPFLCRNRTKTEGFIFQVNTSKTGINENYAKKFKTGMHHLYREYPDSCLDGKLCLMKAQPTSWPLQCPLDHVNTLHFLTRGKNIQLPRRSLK
Chain of native spike complex (glycoprotein complex, GPC) of Junin virus (JUNV) (Junin virus (JUNV)) (P26313 252-485 limits assumed, chain 3 of 3): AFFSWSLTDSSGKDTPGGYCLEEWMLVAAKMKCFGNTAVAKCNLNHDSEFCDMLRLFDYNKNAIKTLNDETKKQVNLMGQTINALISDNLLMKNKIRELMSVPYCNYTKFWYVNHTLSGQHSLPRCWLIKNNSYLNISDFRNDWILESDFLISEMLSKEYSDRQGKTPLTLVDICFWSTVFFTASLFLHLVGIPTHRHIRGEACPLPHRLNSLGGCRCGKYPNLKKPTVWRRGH

Arenacept (sAD fused at its C'-terminus to an Fc portion of IgG1) (Fc fusion)
pseudovirus neutralisation (luciferase, hTfR1-overexpressing HEK293 cells), IC50 [1]: 1.5 µg/mL
pseudovirus neutralisation (luciferase, hTfR1-overexpressing HEK293 cells), IC50 [2]: 3.5 µg/mL

B1: soluble apical domain (sAD) of Neotoma albigula (White-throated woodrat) TfR1 (receptor)
chain: GSKIQVKCSAPNSVTITNASGGLYLVEYPEGYVAYSKATEVTGKLVHANFGTKKDFEDLDYAVNGSIVIVRAGKITIAEKVANAQSFNAIGVLIYKDRTKYPISRADEPLQGHSGLPSIPVQTISREAAEKLFQNMERDCPRSWNTDSSCKLELLQNRNVKLTVNNCLKE
Kd [3]: 1000 nM
Kd [4]: 360 nM
